No end group written: not given here.
T1: NgR (Homo sapiens, UniProt Q9BZR6)
T1 construct: expressed in transfected cells; host or cells: COS-7
T1 sequence (Q9BZR6 27-447): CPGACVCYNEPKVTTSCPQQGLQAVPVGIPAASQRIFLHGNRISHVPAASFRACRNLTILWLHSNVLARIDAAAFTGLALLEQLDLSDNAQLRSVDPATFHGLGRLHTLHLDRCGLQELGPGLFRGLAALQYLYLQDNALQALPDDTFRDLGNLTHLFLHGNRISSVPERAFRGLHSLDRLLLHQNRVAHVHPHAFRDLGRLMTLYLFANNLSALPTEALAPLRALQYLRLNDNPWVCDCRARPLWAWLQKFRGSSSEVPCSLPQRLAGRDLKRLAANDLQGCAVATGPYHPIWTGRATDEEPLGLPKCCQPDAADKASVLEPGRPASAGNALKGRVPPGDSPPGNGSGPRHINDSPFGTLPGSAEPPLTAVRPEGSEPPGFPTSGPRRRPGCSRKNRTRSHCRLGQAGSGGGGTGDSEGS


Target: T1, NgR
Experiment: AP fusion protein binding to NgR expressing COS-7 cells
Settings: for NgR Kd (nM) / Kd: AP fused Amino-Nogo fragments in conditioned media on NgR expressing COS-7 cells, 'No binding at' cells continue on the next line: AmNg A 150 nM, a.a. 1000-1018, a.a. 1005-1018, Amino of NgC 25 nM, a.a. 950-1004 50 nM, Amino of NgB 100 nM; for binding to NgR (COS-7 cells expressing NgR): qualitative
Text: Several alkaline phosphatase (AP) fusion proteins containing various Nogo-A segments derived from regions between the amino terminus and the first hydrophobic segment were examined to identify the mechanism of Amino-Nogo-A action. To generate additional AP fusion proteins, human amino Nogo fragments were amplified and ligated to the pcAP6 vector digested with restriction enzymes EcoRI and XhoI as described (Fournier, A. E., et al., Nature 409:341-346 (2001)). Plasmids were then transfected into HEK293T cells and conditioned media were collected after 7 days. None of these fragments bind with high affinity to non-transfected COS-7 cells. […] This binding is saturable with a Kd indistinguishable from that for AP-Nogo-66 association with NgR (Table I). To better define the region responsible for Amino-Nogo interaction with NgR, a range of truncation mutants of Amino-Nogo were examined as AP fusion proteins. […] In fact, the NgR-interacting segment of Amino-Nogo is fully accounted for in the extreme carboxyl 24 amino acids (aa 995-1018, Amino-Nogo-A-24) (Table I and FIG. 1D). […] We named this domain (aa 995-1013) as Amino-Nogo-A-19.
Binding Kds for AP fused Amino-Nogo fragments were measured by applying conditioned media containing AP fusion protein to NgR expressing COS-7 cells. Bound AP was stained and measured.
It has been recognized that the Amino-Nogo-A protein inhibits non-neuronal cell spreading and axonal outgrowth when the protein is substrate bound (Chen, M. S., et al., Nature 403:434-439 (2000); Fournier, A. E., et al., Nature 409:341-346 (2001)). […] The later domain has been termed Δ20. To determine whether the NgR-interacting aa of Amino-Nogo-A described in Example 1 regulate cell spreading and axonal outgrowth, various fragments were expressed as GST fusion proteins and purified from E. coli. To generate GST fusion proteins, amino Nogo fragments were cloned in pGEX2T (Amersham Pharmacia). Native and soluble GST fusion proteins were expressed and purified as described (GrandPre, T., et al., Nature 403:439-444 (2000)). COS-7 binding assays were done as described (Fournier, A. E., et al., Nature 409:341-346 (2001)). Bound AP to COS-7 cells was measured using NIH image software. Fibroblast spreading and cDRG outgrowth assay were done as described (Fournier, A. E., et al., Nature 409:341-346 (2001)) with some modifications. Briefly, 50 μl of purified GST fusion protein or peptides diluted in PBS was pipetted into polylysine precoated 96 well plates (Becton Dickson Biocoat plates) and dried overnight at room temperature. For fibroblast spreading assay, subconfluent COS-7 cells were then plated for 1 hour in serum containing medium before fixation and staining with rho damine-phalloidin.

NgR Kd (nM) | Kd [nM] | Kd for binding of AP-B4C-66 to NgR (NgR expressing COS-7 cells, FIGS. 6A and 6B) | Molecule | binding to NgR (COS-7 cells expressing NgR)
No binding |  |  | VVDLLYWRDIKKTG (also: alkaline phosphatase fusion; UniProt Q9NQC3 1005-1018, looked up, fragment) [a.a. 1005-1018, AP fusion protein of Nogo-A aa 1005-1018] | 
No binding |  |  | LSKTSVVDLLYWRDIKKTG (also: alkaline phosphatase fusion; UniProt Q9NQC3 1000-1018, looked up, fragment) [a.a. 1000-1018, AP fusion protein of Nogo-A aa 1000-1018] | 
 | 4.55 ± 3.66 |  | IFSAELSKTSVVDLLYWRDIK [a.a. 995-1015] | 
No binding |  |  | ............IFSAELSKTS (LLPPDVSALATQAEIESIVKPKVLVKEAEKKLPSDTEKEDRSPSAIFSAELSKTS; also: alkaline phosphatase fusion; UniProt Q9NQC3 950-1004, looked up, fragment) [a.a. 950-1004, AP fusion protein of aa from the Nogo-A-specific region alone] | do not bind to NgR
No binding |  |  | MDGQKKNWKDKVVDLLYWRDIKKTG (not fully specified) [Amino of NgC, AP fusion protein of Amino-Nogo residues of Nogo-C] | fail to associate with NgR-expressing cells
 | 6.66 ± 1.49 |  | a.a. 622-1018 (AmNg B): AP fusion protein of the carboxyl half of Amino-Nogo (fragment B), aa 622-1018 (protein, left off: large carriers) SAVPSAGASVIQPSSSPLEASSVNYESIKHEPENPPPYEEAMSVSLKKVSGIKEEIKEPENINAALQETEAPYISIACDLIKETKLSAEPAPDFSDYSEMAKVEQPVPDHSELVEDSSPDSEPVDLFSDDSIPDVPQKQDETVMLVKESLTETSFESMIEYENKEKLSALPPEGGKPYLESFKLSLDNTKDTLLPDEVSTLSKKEKIPLQMEELSTAVYSNDDLFISKEAQIRETETFSDSSPIEIIDEFPTLISSKTDSFSKLAREYTDLEVSHKSEIANAPDGAGSLPCTELPHDLSLKNIQPKVEEKISFSDDFSKNGSATSKVLLLPPDVSALATQAEIESIVKPKVLVKEAEKKLPSDTEKEDRSPSAIFSAELSKTSVVDLLYWRDIKKTG | high affinity binding
No binding |  |  | Amino of NgB: AP fusion protein of Amino-Nogo residues of Nogo-B (protein, left off: large carriers, AP fusion protein of Amino-Nogo residues of Nogo-B) MEDLDQSPLVSSSDSPPRPQPAFKYQFVREPEDEEEEEEEEEEDEDEDLEELEVLERKPAAGLSAAPVPTAPAAGAPLMDFGNDFVPPAPRGPLPAAPPVAPERQPSWDPSPVSSTVPAPSPLSAAAVSPSKLPEDDEPPARPPPPPPASVSPQAEPVWTPPAPAPAAPPSTPAAPKRRGSSGSVVVDLLYWRDIKKTG | fail to associate with NgR-expressing cells
 | 9.01 ± 6.36 |  | a.a. 877-1018 (AmNg B4): AP fusion protein of Amino-Nogo fragment B4, aa 877-1018 (protein, left off: large carriers) SKTDSFSKLAREYTDLEVSHKSEIANAPDGAGSLPCTELPHDLSLKNIQPKVEEKISFSDDFSKNGSATSKVLLLPPDVSALATQAEIESIVKPKVLVKEAEKKLPSDTEKEDRSPSAIFSAELSKTSVVDLLYWRDIKKTG | 
 |  | subnanomolar | AP-B4C-66: AP fusion protein with the B4C fragment of Amino-Nogo-A fused directly to Nogo-66 (protein, left off: large carriers) LLPPDVSALATQAEIESIVKPKVLVKEAEKKLPSDTEKEDRSPSAIFSAELSKTSVVDLLYWRDIKKTGRIYKGVIQAIQKSDEGHPFRAYLESEVAISEELVQKYSNSALGHVNCTIKELRRLFLVDDLVDSLK | 

From patent publication US20090111753A1, “Nogo-A Polypeptide Fragments, Variant Nogo Receptor-1 Polypeptides, and Uses Thereof” (Yale University, priority 2004, published 2009)
